In US20170145113A1 (Genentech, published 2017):
Changes are numbered by the printed parent chain. Numbers in names are those of the source.

Experiments:
[1] = target: T1, His-tagged recombinant murine HtrA1 protease domain (murine, UniProt Q9R118 156-367); assay: SPR (BIACORE T100), single-cycle kinetics; biotinylated HtrA1-PD-His on streptavidin, Fab injected
T1 construct: His-tagged protease domain; also called muHtrA1-PD-His; muHtrA1-PD
Source text: (§1) To determine the binding affinity of anti-HtrA1 Fabs by single-cycle kinetics, (SPR) measurement with a BIACORE™ T100 instrument was used. Briefly, a series S sensor chip CM5 was activated with 1-ethyl-3-(3-dimethylamino-propyl)carbodiimide hydrochloride (EDC) and N-hydroxysuccinimide (NHS) reagents according to the supplier's instructions, and streptavidin (Pierce) was coupled to achieve approximately 2500 response units (RU), followed by blocking un-reacted groups with 1 M ethanolamine.
(§2) For kinetics measurements, biotinylated human or murine HtrA1-PD-His was first injected at 10 μl/min flow rate to capture approximately 150 RU at 3 different flow cells (FC), except for FC1 (which served as a reference), and then 5-fold serial dilutions of anti-HtrA1 Fab in HBS-P buffer (0.01M HEPES pH 7.4, 0.15 M NaCl, 0.005% surfactant P20) from low (0.48 nM) to high (300 nM) were injected (flow rate: 30 μl/min) one after the other in the same cycle with no regeneration between injections. The sensorgram was recorded and subject to reference and buffer subtraction before evaluating by BIACORE™ T100 Evaluation Software (version 2.0). Association rates (kₒₙ) and dissociation rates (koff) were calculated using a simple one-to-one Langmuir binding model. The equilibrium dissociation constant (KD) was calculated as the ratio koff/kₒₙ.

[2] = target: T2, His-tagged human HtrA1 protease domain (human, UniProt Q92743 161-367); assay: as above
T2 construct: His-tagged protease domain; also called huHtrA1-PD-His; huHtrA1-PD
Source text: as §1, §2

[3] = target: T2, His-tagged human HtrA1 protease domain; assay: BIACORE SPR, Fab analyte, Human HtrA1-PD (N=2)
[4] = target: T1, His-tagged recombinant murine HtrA1 …; assay: SPR (BIACORE), Fab
Source text: (§3) To address W91 oxidation in HVR-L3, 2 variants (LC-W91Y and LC-W91L) were generated and produced as Fabs for BIACORE™ SPR binding analysis.
as §1, §2

[5] = target: T2, His-tagged human HtrA1 protease domain; assay: SPR (BIACORE), Fab
Source text: as §3, §1, §2

[6] = target: T2, His-tagged human HtrA1 protease domain; assay: SPR (BIACORE), Fab; remark: listed apart in the source
[7] = target: T2, His-tagged human HtrA1 protease domain; assay: BIACORE SPR, single-cycle kinetics; Fab analyte over captured human HtrA1
[8] = target: T2, His-tagged human HtrA1 protease domain; assay: as above; remark: listed apart in the source
[9] = target: T1, His-tagged recombinant murine HtrA1 …; assay: phage competition ELISA (Fab on phage, HtrA1 in solution)
Procedure: (§4) MAXISORP™ microliter plates were coated with human HtrA1-PD-His at 2 μg/ml in PBS for 2 h and then blocked with PBST buffer (0.5% BSA and 0.05% TWEEN®20 in PBS) for 1 h at room temperature. Phage purified from culture supernatants were incubated with serially-diluted human or murine HtrA1 in PBST buffer in a tissue-culture microtiter plate for 1 h, after which 80 μl of the mixture was transferred to human HtrA1-coated wells for 15 min to capture unbound phage. The plate was washed with PBT buffer (0.05% TWEEN®20 in PBS), and HRP-conjugated anti-M13 antibody (Amersham Pharmacia Biotech) was added (1:5000 in PBST buffer) for 40 min. The plate was washed with PBT buffer and developed by adding tetramethylbenzidine substrate (Kirkegaard and Perry Laboratories, Gaithersburg, Md.). The absorbance at 450 nm was plotted as a function of target concentration in solution to determine phage IC50.

[10] = target: T2, His-tagged human HtrA1 protease domain; assay: as above
Procedure: as §4

[11] = target: T2, His-tagged human HtrA1 protease domain; assay: cell-based or functional assay
[12] = target: T2, His-tagged human HtrA1 protease domain; assay: BIACORE SPR analysis, Fab format
Procedure: (§5) To determine the binding affinity of selected Fab variants for HtrA1, SPR measurement with a BIACORE™ T200 instrument was performed. Briefly, a series S sensor chip CM5 was activated with 1-EDC and NHS reagents according to the supplier's instructions, and anti-His antibody was coupled to achieve 200-300 response units (RU), then following by blocking un-reacted groups with 1 M ethanolamine. For kinetics measurements, approximately 5 nM of huHtrA1-PD-His was first injected at 10 μl/min flow rate to capture approximately 100 RU at 2 different flow cells (FC), except for FC1 (which served as a reference). Next, 5-fold serial dilutions of Fab in HBS-P buffer (0.01M HEPES pH 7.4, 0.15M NaCl, 0.005% surfactant P20) from low (0.8 nM) to high (50 nM) were injected (flow rate: 30 μl/min). The binding responses on HtrA1 were corrected by subtracting of RU from a blank flow cell. The sensorgram was recorded and subject to reference and buffer subtraction before evaluating by BIACORE® T200 Evaluation Software (version 2.0). Association rates (kₒₙ) and dissociation rates (koff) were calculated using a simple one-to-one Langmuir binding model. The equilibrium dissociation constant (KD) was calculated as the ratio of koff/kₒₙ.

[13] = target: T2, His-tagged human HtrA1 protease domain; assay: BIACORE T200 SPR; Fab analyte over huHtrA1-PD-His captured by anti-His antibody
Procedure: as §5

T2 sequence (Q92743 other isoform, or with tags, fused parts or gaps limits assumed): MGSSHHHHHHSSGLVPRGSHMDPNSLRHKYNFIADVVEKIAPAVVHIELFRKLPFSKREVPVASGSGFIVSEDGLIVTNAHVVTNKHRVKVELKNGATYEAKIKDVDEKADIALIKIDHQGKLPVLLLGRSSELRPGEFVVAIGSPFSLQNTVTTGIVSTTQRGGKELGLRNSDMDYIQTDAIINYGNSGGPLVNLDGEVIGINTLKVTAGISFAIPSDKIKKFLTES

B1: m15H6 Fab (Fab, V domains shown)
VH: QVQLQQSGAELVRPGASVTLSCKASGYTFTDSEMHWVKQTPVHGLEWIGGVDPETDGAAYNQKFKGKATLTADKSSSTAYMELRSLTSEDSAVYYCTRGYDYDYALDYWGQGTSVTVSS
VL: QIVLSQSPAILSASPGEKVTMTCRASSSVNFIHWYQQKPGSSPKPWISATSNLASGVPPRFSGSGSGTSYSLTISRVEAEDAATYYCQQWSSNPWTFGGGTKLEIK
notes: Tested as Fab; also called ml5H6 Fab; m15H6 in Fab format
Binder B1 has a Kd [1] of 0.3 nM, a koff [1] of 0.000163 s⁻¹ and a kon [1] of 539000 M⁻¹ s⁻¹. The Kd [2] was 0.31 nM, the koff [2] was 0.000155 s⁻¹ and the kon [2] was 506000 M⁻¹ s⁻¹.

B2: m19B12 Fab (Fab, V domains shown)
VH: EVKLVESGGGLVEPGGSLKLACVASGFTFSSYIMSWVRQTPEKRLEWVAYISNGGGTTYYSDTIKGRFTISRDNAKNTLYLQMSTLKSEDTAIYFCARQNFRSDGSSMDYWGQGTAVTVSS
VL: NIVVTQSPASLAVSLGQRATISCRASESVDSYGKSFMHWYQQKPGQPPKLLIYLASKLESGVPARFSGSGSRTDFTLTIDPVEADDAATYYCQQNNEDPYTFGGGTKLEIK
notes: Tested in Fab format
B2 gave a Kd [1] of 6.43 nM, a koff [1] of 0.00117 s⁻¹ and a kon [1] of 182000 M⁻¹ s⁻¹. The Kd [2] was 23.8 nM, the koff [2] was 0.00228 s⁻¹ and the kon [2] was 96000 M⁻¹ s⁻¹.

B3: EP_EG (Fab, V domains shown)
VH: EVQLVQSGAEVKKPGASVKVSCKASGYTFTDSEMHWVRQAPGQGLEWIGGVDPETEGAAYNQKFKGRATITRDTSTSTAYLELSSLRSEDTAVYYCTRGYDYDYALDYWGQGTLVTVSS
VL: DIQMTQSPSSLSASVGDRVTITCRASSSVNFIHWYQQKPGKAPKPLISATSNLASGVPSRFSGSGSGTDFTLTISSLQPEDFATYYCQQWSSEPWTFGQGTKVEIK
notes: also called h15H6.v2 LC-N94E LC-P95 HC-D55E HC-G56 Fab; copies: 1 + 1
B3 was tested, and the Kd [3] was 0.4 nM, the koff [3] was 0.00018 s⁻¹ and the kon [3] was 450000 M⁻¹ s⁻¹.

B4: h15H6.v2 LC-W91L Fab (Fab, V domains shown)
VH: B3 VH with E56D
VL: B3 VL with W90L, E93N
notes: Produced as Fab
B4 gave a Kd [4] of 7.6 nM, a koff [4] of 0.00091 s⁻¹ and a kon [4] of 120000 M⁻¹ s⁻¹. It also gave a Kd [5] of 10.7 nM, a koff [5] of 0.0016 s⁻¹ and a kon [5] of 150000 M⁻¹ s⁻¹.

B5: h15H6.v2 LC-N94S LC-P95 Fab (Fab, V domains shown)
VH: B3 VH with E56D
VL: B3 VL with E93S
notes: Produced as Fab; also called SP
B5 was tested, and the “fold reduction in binding affinity against h15H6.v2” value [6] was about 2 fold, the Kd [7] was 0.52 nM and the koff [7] was 0.00025 s⁻¹. It also gave a kon [7] of 480000 M⁻¹ s⁻¹.

B6: h15H6.v2 HC-D55E HC-G56 Fab (Fab, V domains shown)
VH: B3 VH
VL: B3 VL with E93N
notes: Produced as Fab; also called EG
In the case of B6, the Kd [8] is reported as 0.55 nM, the koff [8] is reported as 0.00021 s⁻¹ and the kon [8] is reported as 380000 M⁻¹ s⁻¹.

B7: SG (Fab, V domains shown)
VH: B3 VH with E56S
VL: B3 VL with E93N
notes: single member of the group m42; also called h15H6.v2 HC-D55S HC-G56 Fab
For B7, the Kd [8] was 0.78 nM, the koff [8] was 0.00032 s⁻¹ and the kon [8] was 410000 M⁻¹ s⁻¹.

B8: h15H6.v1 HC-A71R variant (Fab, V domains shown)
VH: B3 VH with E56D, I70L
VL: B3 VL with L46W, E93N
notes: built as h15H6.v1
B8: binds [9]; binds [10].

B9: h15H6.v1 HC-L69I variant (Fab, V domains shown)
VH: B3 VH with E56D, R72A
VL: B3 VL with L46W, E93N
notes: built as h15H6.v1
B9: binds [9]; binds [10].

B10: QP_EG (Fab, V domains shown)
VH: B3 VH
VL: B3 VL with E93Q
notes: also called h15H6.v2 LC-N94Q LC-P95 HC-D55E HC-G56 Fab; copies: 1 + 1
B10 was tested, and the Kd [3] was 0.8 nM, the koff [3] was 0.00029 s⁻¹ and the kon [3] was 380000 M⁻¹ s⁻¹.

B11: h15H6.v2 LC-W91Y Fab (Fab, V domains shown)
VH: B3 VH with E56D
VL: B3 VL with W90Y, E93N
notes: Produced as Fab
B11 was tested, and the Kd [4] was 7.1 nM, the koff [4] was 0.0017 s⁻¹ and the kon [4] was 240000 M⁻¹ s⁻¹. It also gave a Kd [5] of 11.2 nM, a koff [5] of 0.0037 s⁻¹ and a kon [5] of 330000 M⁻¹ s⁻¹.

B12: h15H6.v2.APEG Fab (Fab, name in Kabat numbering, V domains shown)
VH: B3 VH
VL: B3 VL with E93A
notes: also called h15H6.v3; LC-N94A LC-P95 HC-D55E HC-G56
In the case of B12, the “IC50 FRET (H2-Opt substrate cleavage)” value [11] is reported as 0.41 nM, the “IC90 FRET (H2-Opt substrate cleavage)” value [11] is reported as 2.77 nM and the “Max inhibition (FRET H2-Opt assay)” value [11] is reported as 77. It also gave a Kd [12] of 0.546 nM, a koff [12] of 0.000172 s⁻¹ and a kon [12] of 315000 M⁻¹ s⁻¹. The Kd [3] was 0.6 nM, the koff [3] was 0.00021 s⁻¹ and the kon [3] was 350000 M⁻¹ s⁻¹. The Kd [13] was 0.546 nM, the koff [13] was 0.000172 s⁻¹ and the kon [13] was 315000 M⁻¹ s⁻¹.

B13: h15H6.v1 HC-T93A variant (Fab, V domains shown)
VH: B3 VH with E56D, I70L, R72A, T97A
VL: B3 VL with L46W, E93N
notes: built as h15H6.v1
B13: binds [10].

B14: SP_EG (Fab, V domains shown)
VH: B3 VH
VL: B3 VL with E93S
notes: also called h15H6.v2 LC-N94S LC-P95 HC-D55E HC-G56 Fab; copies: 1 + 1
With B14 the Kd [3] was 0.8 nM, the koff [3] was 0.00029 s⁻¹ and the kon [3] was 350000 M⁻¹ s⁻¹.

B15: h15H6.v1 HC-A67V variant (Fab, V domains shown)
VH: B3 VH with E56D, A68V, I70L, R72A
VL: B3 VL with L46W, E93N
notes: built as h15H6.v1
B15: binds [10].

B16: h15H6.v2 LC-N94Q LC-P95 Fab (Fab, V domains shown)
VH: B3 VH with E56D
VL: B3 VL with E93Q
notes: Produced as Fab; also called QP
For B16, the “fold reduction in binding affinity against h15H6.v2” value [6] was about 2 fold, the Kd [7] was 0.52 nM and the koff [7] was 0.00029 s⁻¹. It also gave a kon [7] of 560000 M⁻¹ s⁻¹.
